Measurements from IntAct's records for PubMed 26258305.

Legend:
ti11a_arath TIFY11A = ti11a_arath TIFY11A (UniProt Q9LDU5)
tif6a_arath TIFY6A = tif6a_arath TIFY6A (UniProt Q58G47)
tif6b_arath TIFY6B = tif6b_arath TIFY6B (UniProt Q9LVI4)
tif3b_arath TIFY3B = tif3b_arath TIFY3B (UniProt Q9C5K8)
tif3a_arath TIFY3A = tif3a_arath TIFY3A (UniProt Q9M246)
ti11b_arath TIFY11B = ti11b_arath TIFY11B (UniProt Q9C9E3)
ti10a_arath TIFY10A = ti10a_arath TIFY10A (UniProt Q9LMA8)
tif7_arath TIFY7 = tif7_arath TIFY7 (UniProt Q8W4J8)
tif9_arath TIFY9 = tif9_arath TIFY9 (UniProt Q93ZM9)
ti10b_arath TIFY10B = ti10b_arath TIFY10B (UniProt Q9S7M2)
tif5a_arath TIFY5A = tif5a_arath TIFY5A (UniProt Q8LBM2)

Chain of tif6a_arath TIFY6A (Q58G47 whole entry): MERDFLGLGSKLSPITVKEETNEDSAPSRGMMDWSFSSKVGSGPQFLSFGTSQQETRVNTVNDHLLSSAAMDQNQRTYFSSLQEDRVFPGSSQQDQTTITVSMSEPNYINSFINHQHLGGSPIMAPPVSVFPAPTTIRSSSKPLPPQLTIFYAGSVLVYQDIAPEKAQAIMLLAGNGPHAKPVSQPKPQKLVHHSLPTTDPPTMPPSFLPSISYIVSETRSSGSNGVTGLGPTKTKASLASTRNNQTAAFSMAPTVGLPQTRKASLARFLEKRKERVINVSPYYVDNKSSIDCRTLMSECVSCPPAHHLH
Chain of tif3b_arath TIFY3B (Q9C5K8 whole entry): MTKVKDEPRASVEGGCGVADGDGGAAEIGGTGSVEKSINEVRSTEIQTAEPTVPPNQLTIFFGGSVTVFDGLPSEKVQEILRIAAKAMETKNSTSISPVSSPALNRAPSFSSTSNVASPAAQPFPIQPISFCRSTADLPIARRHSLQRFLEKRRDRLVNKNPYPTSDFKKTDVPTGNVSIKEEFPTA
Chain of Transcription factor MYC3 (Arabidopsis thaliana (Mouse-ear cress)), Q9FIP9 M155A (Q9FIP9 whole entry M155A): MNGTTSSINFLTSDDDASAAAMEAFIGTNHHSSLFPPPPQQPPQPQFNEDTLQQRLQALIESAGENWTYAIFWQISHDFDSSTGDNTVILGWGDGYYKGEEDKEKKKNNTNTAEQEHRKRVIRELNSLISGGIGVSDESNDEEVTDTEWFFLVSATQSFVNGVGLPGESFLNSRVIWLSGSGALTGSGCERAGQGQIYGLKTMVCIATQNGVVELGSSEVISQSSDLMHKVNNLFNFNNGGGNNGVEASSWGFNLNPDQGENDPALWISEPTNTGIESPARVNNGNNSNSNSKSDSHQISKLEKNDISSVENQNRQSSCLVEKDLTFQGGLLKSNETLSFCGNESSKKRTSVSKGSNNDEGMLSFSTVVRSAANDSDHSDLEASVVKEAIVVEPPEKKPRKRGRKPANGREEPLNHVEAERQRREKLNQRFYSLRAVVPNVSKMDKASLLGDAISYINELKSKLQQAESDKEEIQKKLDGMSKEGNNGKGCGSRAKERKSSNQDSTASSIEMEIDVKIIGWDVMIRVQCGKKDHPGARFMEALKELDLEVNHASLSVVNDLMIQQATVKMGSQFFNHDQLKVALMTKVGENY
Chain of ti11a_arath TIFY11A (Q9LDU5 whole entry): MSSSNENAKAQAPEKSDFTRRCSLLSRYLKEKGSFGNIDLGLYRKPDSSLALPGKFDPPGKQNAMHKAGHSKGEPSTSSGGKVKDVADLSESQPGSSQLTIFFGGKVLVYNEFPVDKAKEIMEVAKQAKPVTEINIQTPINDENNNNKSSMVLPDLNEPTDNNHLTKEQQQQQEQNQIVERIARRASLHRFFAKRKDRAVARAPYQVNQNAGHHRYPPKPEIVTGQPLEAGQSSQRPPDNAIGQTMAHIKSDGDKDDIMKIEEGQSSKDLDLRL
Chain of Transcription factor MYC3 (Arabidopsis thaliana (Mouse-ear cress)), Q9FIP9 F151A;L152A;M155A (Q9FIP9 whole entry F151A/L152A/M155A): as the sequence (Q9FIP9 whole entry M155A) above, with F151A, L152A counted along it
Chain of Transcription factor MYC3 (Arabidopsis thaliana (Mouse-ear cress)), Q9FIP9 L152A (Q9FIP9 whole entry L152A): as the sequence (Q9FIP9 whole entry M155A) above, with L152A, A155M counted along it
Chain of Transcription factor MYC3 (Arabidopsis thaliana (Mouse-ear cress)), Q9FIP9 W92A;D94A;Y97A (Q9FIP9 whole entry W92A/D94A/Y97A): as the sequence (Q9FIP9 whole entry M155A) above, with W92A, D94A, Y97A, A155M counted along it
Chain of Transcription factor MYC3 (Arabidopsis thaliana (Mouse-ear cress)), Q9FIP9 L152A;M155A (Q9FIP9 whole entry L152A/M155A): as the sequence (Q9FIP9 whole entry M155A) above, with L152A counted along it
Chain of Transcription factor MYC3 (Arabidopsis thaliana (Mouse-ear cress)), Q9FIP9 D94A;Y97A (Q9FIP9 whole entry D94A/Y97A): as the sequence (Q9FIP9 whole entry M155A) above, with D94A, Y97A, A155M counted along it
Chain of Transcription factor MYC3 (Arabidopsis thaliana (Mouse-ear cress)), Q9FIP9 D94N (Q9FIP9 whole entry D94N): as the sequence (Q9FIP9 whole entry M155A) above, with D94N, A155M counted along it

| Substance | effect of a mutation on the interaction (ti11a_arath TIFY11A) | effect of a mutation on the interaction (tif6a_arath TIFY6A) | effect of a mutation on the interaction (tif6b_arath TIFY6B) | effect of a mutation on the interaction (tif3b_arath TIFY3B) | effect of a mutation on the interaction (tif3a_arath TIFY3A) | effect of a mutation on the interaction (ti11b_arath TIFY11B) | effect of a mutation on the interaction (ti10a_arath TIFY10A) | effect of a mutation on the interaction (tif7_arath TIFY7) | effect of a mutation on the interaction (tif9_arath TIFY9) | effect of a mutation on the interaction (ti10b_arath TIFY10B) | effect of a mutation on the interaction (tif5a_arath TIFY5A) |
| --- | --- | --- | --- | --- | --- | --- | --- | --- | --- | --- | --- |
| Transcription factor MYC3 (Arabidopsis thaliana (Mouse-ear cress)), Q9FIP9 L152A | disrupting interaction strength | disrupting interaction strength | disrupting interaction strength | disrupting interaction strength | decreasing interaction strength | decreasing interaction strength | decreasing interaction strength | disrupting interaction strength | decreasing interaction strength | decreasing interaction strength | – |
| Transcription factor MYC3 (Arabidopsis thaliana (Mouse-ear cress)), Q9FIP9 F151A | disrupting interaction strength | disrupting interaction strength | disrupting interaction strength | disrupting interaction strength | decreasing interaction strength | decreasing interaction strength | decreasing interaction strength | decreasing interaction strength | decreasing interaction strength | decreasing interaction strength | decreasing interaction strength |
| Transcription factor MYC3 (Arabidopsis thaliana (Mouse-ear cress)), Q9FIP9 F151A;L152A;M155A | disrupting interaction strength | disrupting interaction strength | disrupting interaction strength | disrupting interaction strength | disrupting interaction strength | disrupting interaction strength | disrupting interaction strength | disrupting interaction strength | disrupting interaction strength | disrupting interaction strength | disrupting interaction strength |
| Transcription factor MYC3 (Arabidopsis thaliana (Mouse-ear cress)), Q9FIP9 W92A;D94A | – | disrupting interaction strength | – | – | – | – | – | – | – | – | – |
| Transcription factor MYC3 (Arabidopsis thaliana (Mouse-ear cress)), Q9FIP9 L152A;M155A | disrupting interaction strength | disrupting interaction strength | disrupting interaction strength | disrupting interaction strength | disrupting interaction strength | disrupting interaction strength | disrupting interaction strength | disrupting interaction strength | disrupting interaction strength | disrupting interaction strength | disrupting interaction strength |
| Transcription factor MYC3 (Arabidopsis thaliana (Mouse-ear cress)), Q9FIP9 W92A;Y97A | disrupting interaction strength | disrupting interaction strength | disrupting interaction strength | disrupting interaction strength | decreasing interaction strength | disrupting interaction strength | decreasing interaction strength | disrupting interaction strength | decreasing interaction strength | disrupting interaction strength | decreasing interaction strength |
| Transcription factor MYC3 (Arabidopsis thaliana (Mouse-ear cress)), Q9FIP9 Y97A | – | disrupting interaction strength | – | – | – | – | – | – | – | – | – |
| Transcription factor MYC3 (Arabidopsis thaliana (Mouse-ear cress)), Q9FIP9 D94N | – | disrupting interaction strength | disrupting interaction strength | – | – | – | – | disrupting interaction strength | – | – | – |
| Transcription factor MYC3 (Arabidopsis thaliana (Mouse-ear cress)), Q9FIP9 D94A;Y97A | decreasing interaction strength | decreasing interaction strength | decreasing interaction strength | – | – | decreasing interaction strength | – | decreasing interaction strength | – | – | – |
| Transcription factor MYC3 (Arabidopsis thaliana (Mouse-ear cress)), Q9FIP9 W92A;D94A;Y97A | disrupting interaction strength | disrupting interaction strength | disrupting interaction strength | disrupting interaction strength | disrupting interaction strength | disrupting interaction strength | disrupting interaction strength | disrupting interaction strength | disrupting interaction strength | disrupting interaction strength | disrupting interaction strength |
| Transcription factor MYC3 (Arabidopsis thaliana (Mouse-ear cress)), Q9FIP9 W92A | – | disrupting interaction strength | – | – | – | – | – | – | – | – | – |
| Transcription factor MYC3 (Arabidopsis thaliana (Mouse-ear cress)), Q9FIP9 F151A;L152A | disrupting interaction strength | disrupting interaction strength | disrupting interaction strength | disrupting interaction strength | disrupting interaction strength | disrupting interaction strength | disrupting interaction strength | disrupting interaction strength | disrupting interaction strength | disrupting interaction strength | disrupting interaction strength |
| Transcription factor MYC3 (Arabidopsis thaliana (Mouse-ear cress)), Q9FIP9 M155A | decreasing interaction strength | disrupting interaction strength | disrupting interaction strength | disrupting interaction strength | – | decreasing interaction strength | – | disrupting interaction strength | – | – | – |
| Transcription factor MYC3 (Arabidopsis thaliana (Mouse-ear cress)), Q9FIP9 D94A | – | disrupting interaction strength | – | – | – | – | – | – | – | – | – |
| Transcription factor MYC3 (Arabidopsis thaliana (Mouse-ear cress)), Q9FIP9 F151A;M155A | disrupting interaction strength | disrupting interaction strength | disrupting interaction strength | disrupting interaction strength | disrupting interaction strength | decreasing interaction strength | decreasing interaction strength | disrupting interaction strength | decreasing interaction strength | disrupting interaction strength | disrupting interaction strength |
